Biological target: Mcm2-7 complex (wild type) (Saccharomyces cerevisiae, UniProt P29469;P24279;P30665;P29496;P53091;P38132 1-868;1-971;1-933;1-775;1-1017;1-845)
Experiment: EMSA; 5 mM ATP, 10 mM Mg acetate; 50-400 nM complex, 1 nM DNA; shifted band diminished by anti-Mcm7; EMSA: 20 mM Tris-HCl pH 7.5, 10 mM Mg acetate, 100 uM EDTA, 5 mM DTT, 5 mM ATP, 37 C, 10 min; 5% native TBE gel with 5% glycerol, 0.1% NP-40, 10 mM Mg acetate
Conditions: protein: recombinant; copies: 1;1;1;1;1;1; label: 5'-32P; single strand

B1: 90-base ssDNA oligonucleotide with (T)60 tail (ssDNA)
DNA: ATGTCCTAGCAAGCCAGAATTCGGCAGCGTCTTTTTTTTTTTTTTTTTTTTTTTTTTTTTTTTTTTTTTTTTTTTTTTTTTTTTTTTTTTT
- binding result: binds
